{"source": "paper PMC2825239", "proteins": {"B1": {"name": "CYP75A8 (Catharanthus roseus) (protein)", "chain": "MALEKLVLFDFLAAISILILVQKFIQIVFLRSSSRIRLPPGPKGWPIIGALPYLGTMPHSILANMAKKYGPIMYLKLGTNGMVVASTPDAVKAFLRTLDMNFSNRPIDAGATHLAYNAQDMVFAHYGPKWKLLRKLSNLHMLGGKALENWSNVRATELGYMLQAMYESSRKGETVVVPEMLTYAMANMIGQVILSRRVFVTKSLESNEFKDMVVELMTTAGYFNIGDFIPSIAWMDLQGIERGMKRLHKKFDALLTKMLEEHKSSSHKRKEKPDFLDYVLANRDNSEGERLTTTNIKALLLNLFTAGTDTSSSVIEWAISEMLKNPTILKRAQEEMDQVIGRNRRLMESDIPKLPYLQAICKETFRKHPSTPLNLPRIAQKDCQVNGYYIPKGTRLSVNIWAIGRDPNVWENPLEFNPDRFLSGKMAKIEPRGNDFELIPFGAGRRICAGTRMGIVLVEYILGTLVHSFDWKLPFDDINELNMDESFGLALQKAVPLVAMVSPRLPINAYSP"}, "B2": {"name": "CYP75A31 (Solanum lycopersicum) (protein)", "chain": "MALRINELFVAAIIYIIVHIIISKLITTVRERGRRLPLPPGPTGWPVIGALPLLGSMPHVALAKMAKKYGPIMYLKVGTCGMVVASTPNAAKAFLKTLDINFSNRPPNAGATHLAYNAQDMVFAPYGPRWKLLRKLSNLHMLGGKALENWANVRANELGHMLKSMFDASQDGECVVIADVLTFAMANMIGQVMLSKRVFVEKGVEVNEFKNMVVELMTVAGYFNIGDFIPKLAWMDIQGIEKGMKNLHKKFDDLLTKMFDEHEATSNERKENPDFLDVVMANRDNSEGERLSTTNIKALLLNLFTAGTDTSSSVIEWALAEMMKNPKIFKKAQQEMDQVIGKNRRLIESDIPNLPYLRAICKETFRKHPSTPLNLPRVSSEPCTVDGYYIPKNTRLSVNIWAIGRDPDVWENPLEFTPERFLSGKNAKIEPRGNDFELIPFGAGRRICAGTRMGIVVVEYILGTLVHSFDWKLPNNVIDINMEESFGLALQKAVPLEAMVTPRLSLDVYRC"}}, "substrate": "O=C1C[C@@H](c2ccc(O)cc2)Oc2cc(O)cc(O)c21", "test": "cells, lysate or membranes", "conditions": "NADPH 1.0 mM, 0.1 M sodium phosphate pH 7.0, 27°C (general assay conditions)"}
{"protein": "B1", "values": [{"measurement": "Km", "setting": "ATR1 reductase yeast expression system, assay conditions not separately printed", "value": 0.83, "unit": "µM"}]}
{"protein": "B2", "values": [{"measurement": "Km", "setting": "ATR1 reductase", "value": 1.20, "unit": "µM"}]}
